Assay results as given in the RNAGym collection of RNA variant scans (doi:10.1073/pnas.2313332121).

B1: TPR t1 (parent)
chain: GACCAAUCUGCCCUCAGAGCUCGAGAACAUCUUCGGAUGCAGAGGAGGCAGGCUUCGGUGGCGCGAUAGCGCCAACGUCCUCAACCUCCAAUGCAUCCCACCACAUGAUGAUGCCUGAAGAGCCUUGGUUUUUUG

Variants of: B1
Experiment: polymerase ribozyme fitness, log enrichment relative to wild type (log ratio); higher = more active; in vitro selection for triplet polymerase activity
Procedure, shortened: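 A single round of triplicate in vitro selection, including frozen incubation at −7 °C, was applied to PCR-built, transcribed mutant libraries of each subunit of a heterodimeric triplet polymerase ribozyme. Illumina sequencing of input and output libraries retained genotypes with ≥10 input reads and ≥1 read per output. Fitness is the base-2 logarithm of genotype enrichment divided by wild-type enrichment, from inverse-variance-weighted replicate averages.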

Variant	polymerase ribozyme fitness (log ratio)
U9G U14A C31U G69U G117A G127C	-4.64
U9G C15A G58A C97U U116G U129G	-5.21
G10A A50G	0.0587
U9G A105U G113A	-5.18
U9G G36U C70U A74U	-1.42
G10A G45C C56G G63A	-4.08
G10A G63A	-0.758
U9G C12A U14G G63U C99A G120C	-6.39
G10C A27U G39U	-3.03
G10U A84G C86A	-0.969
G10A G48C U54A C94U G110U A121C C123G	-1.01
U9G C12A G57U A111U C114A U133A	-5.59
G10C U78C	-1.63
U9C C11U G71A A111C	-1.02
U9A A75U U96G	-0.383
U9G G44U G58A G60U C102U U106A U133C	-3.81
U9C G17U C20G G25C C115U	-6.98
U9G C13U C49G C82U	-0.776
G10C C11U C62G A84U A108G	-4.22
U9C U125A	0.386
G10A A84U G110U	-1.93

Variant	polymerase ribozyme fitness (log ratio)
G10A C13G A27U C72U A105U	-3.22
U9A C13G U32A G39C A41U G60C C88U G117A	-7.75
U9G C22G U81C	-3.31
G10A C11A A18C G42C G44A G60A C101A	-4.31
U9G C73U G113A	-0.47
G10A G36U G44U G61U C88U A95G U96A G120A	-7.26
U9A G42A G57U C115A G127U U131A	-3.74
G10C C70G	-3.67
U9A C12G U87G C99U	-2.31
U9G C53U A95C C115A	0.969
G10A A43U G57U U130C	-1.83
U9G G10U U14A C97U	-0.883
U9C G39A A41C C72G A84C C86A C99A A121U	-6.53
G10C G63A	-1.49
U9G C11G G45C	-5.66
G10C G42C	-2.24
G10A C40U A46C U130G	-2.46
G10A G47C G51C U59G U81C C115A	-5.77
U9A A84U A121C	2.06
U9G G57U U96A U112A	0.146
G10A C28G G47U U59G	-5

Variant	polymerase ribozyme fitness (log ratio)
U9A C56U C73U	0.233
G10A C22G G57C	-2.92
U9C C12U C22G G45C C72G A100U	-4.47
G10A G42A G44A C72U	-1.94
U9C G19U C70U	-3.94
U9G G10U C94U	-0.059
U9C A50U C94U	-2.36
U9C A111U A121C U126A U130G	-4.36
G10A A27G G71A C86U	-3.87
U9C C64A A74U U112G	-6.76
U9A G51A G52A C70G C82U G120C	-5.71
U9G C13G C53G C56U C86U A111U	-2.52
U9G G48U G61U G135U	-1.68
U9A C13G C20A A43G A95G	-4.1
U9C G45A C124U U126A U133A	-0.505
U9C A43C A46G	-1.4
G10A A41C G52A	-1.27
U9C G36U C104A C115A	-1.3
U9C C13U G48A A74C U81G C101U U126C	-2.71
U9C C82A U109G C124U U131C	-3.57
G10C G52U C53A	-1.16

Variant	polymerase ribozyme fitness (log ratio)
G10C C20A	-3.95
U9A C13G A46G G107C G135U	-7.09
U9C C49A C123U	1.45
U9A G36A G113A	-0.728
U9G G63C C72A	-3.45
G10C U30C G71A G117A	-5.64
G10C C11A C31A G47U G107U G113A	-2.42
U9G G65U	-5.74
U9G A46U G48U C76U C124U	-1.24
G10C C89G A121C	0.737
U9A U55G C56G	-0.896
U9C C15A G45C G57C U59A	0.541
U9G C20G G44C C72U C114G	-6.99
U9A G51A U112A	-2.45
G10C A37U G63U U96A C124U U129G	-4.44
G10A C53G G61A A95G	-0.503
U9C A26G C34A G39A C97A C115A A121G	-1.6
G10A U81A	-0.546
G10A G47U C56U C82A A83G	-2.51
U9C U32C U109G	-6.53
U9A G110C U130A	-4.06
